Data from the RNAGym collection of RNA variant scans (doi:10.7554/elife.90254).

B1: LINE1-mini (parent)
chain: GGCAGAGCUCAACACAGCGUGGCAAAGUGGCUGUGGCUAGACUGCC

Variants of: B1
Experiment: self-cleavage, relative activity (ratio to wild type); higher = more cleavage; in vitro, sequencing; the parent is a self-cleaving ribozyme

First: GGCAGAGCUCCACACAGGGUGGCAAAGUGGCUGUGGCUAGACUGCC [A11C C18G]
Second: GGCAGAGCUCAAAACAGCGUGGGAAAGUGGCUGUGGCUAGACUGCC [C13A C23G]
The self-cleavage of the first is lower: 0.05 for the first, 0.13 for the second.

Compared with GGUAGACCUCAACACAGCGUGGCAAAGUGGCUGUGGCUAGACUGCC [C3U G7C], GGCAGACCUCAACACAGUGUGGCAAAGUGGCUGUGGCUAGACUGCC [G7C C18U] is higher in self-cleavage: 0.17 for the first, 0.19 for the second.

Compared with GGCAGAGCUCAACACAGCGUGGCAAAGUAGCUGUGGCUAGACUGCC [G29A], GGCAGAGCUCAACACAGCGUGGCAAAGUCGCUGUGGCUAGACUGCC [G29C] is lower in self-cleavage: 0.88 for the first, 0.49 for the second.

Going from GGCAGAGCUCAACACAGCGUGGCAAAGUGGUUGUGGCGAGACUGCC [C31U U38G] to GGCAGAGCUCAACACAGCGCGGCAAAGUGGCUGUGGGUAGACUGCC [U20C C37G], the self-cleavage rises from 0.05 to 0.23.

GGCAGAGUUCAACACAGCGUGGAAAAGUGGCUGUGGCUAGACUGCC [C8U C23A] and GGCAGAGCUCAACACAGCGUGGCAAAGUAGCUGUGGCUCGACUGCC [G29A A39C] are the same in self-cleavage: 0.21 for the first, 0.21 for the second.

Going from AGCAGAGCUCAACACAGCGUGGCAAAGUGGCUGUGGCUAGACUGCG [G1A C46G] to GGCAGAGCUCAACACAGCGUGGCAAAGUGGCUGUGGCUAUACUACC [G40U G44A], the self-cleavage falls from 2.92 to 0.14.

First: GGCAGAGCUCAACUCAGCGUGGCAAAGUGGCUGUCGCUAGACUGCC [A14U G35C]
Second: GACAGAGCUCAACACAGCGUGACAAAGUGGCUGUGGCUAGACUGCC [G2A G22A]
The self-cleavage of the first is lower: 0.11 for the first, 0.8 for the second.

Compared with GGCAGAGCUCAACACGGCGUGGCAAAGUGGCGGUGGCUAGACUGCC [A16G U32G], GGCAGAGCUCAACACAGCGUGGCAAAGUGGCUGUGGCUAGUCUGGC [A41U C45G] is higher in self-cleavage: 0.11 for the first, 0.23 for the second.

First: GGCAGAGCUCAACACAGCGCGGCAAAGUGGCUGUGACUAGACUGCC [U20C G36A]
Second: GGCAGAGCUCAACACAGCGUGGCAAAGUGCCUGUGGCCAGACUGCC [G30C U38C]
The self-cleavage of the first is lower: 0.11 for the first, 0.49 for the second.

Going from GGCAGAGCUGAACACAGCGUGCCAAAGUGGCUGUGGCUAGACUGCC [C10G G22C] to GGCAGAGCUCAACACAGCGUGGCAAAGUGGCUAUGGCUAGAGUGCC [G33A C42G], the self-cleavage falls from 0.12 to 0.06.

First: CGCAGAGCUCGACACAGCGUGGCAAAGUGGCUGUGGCUAGACUGCC [G1C A11G]
Second: GGCAGAGCUCAACAUAGCGUGGCAAAGUGGAUGUGGCUAGACUGCC [C15U C31A]
The self-cleavage of the first is lower: 0.01 for the first, 0.06 for the second.

Going from GGCAGAGCUCAACACAGCGUGGCCAAGUGGAUGUGGCUAGACUGCC [A24C C31A] to GGCAGAGCUCAACACACCGUGGCAAAGUGGCGGUGGCUAGACUGCC [G17C U32G], the self-cleavage rises from 0.06 to 0.07.

Compared with GGCAGAGCUCAACGCAGCGUGGCAAAGUGGCUGUGGCUAGAAUGCC [A14G C42A], GGCAGAGCUCAACACAGCGUGGCUAAGUGGCUGUGGCUAGACUGCA [A24U C46A] is higher in self-cleavage: 0.08 for the first, 2.01 for the second.

Compared with GGCAGUGCGCAACACAGCGUGGCAAAGUGGCUGUGGCUAGACUGCC [A6U U9G], GGCAGAGCUCAACACAGCGUGGCAAAGUGGUUGUGGCUACACUGCC [C31U G40C] is lower in self-cleavage: 0.15 for the first, 0.03 for the second.

Compared with GGCAGAGCUCAACACAGCGUGGCAAAGAGGCUGUGGCUAGACGGCC [U28A U43G], GGCAGAGCUCAACACAGCGUGGCAAAGUGGAUGUGGCUAGACUGCU [C31A C46U] is higher in self-cleavage: 0.03 for the first, 0.11 for the second.

Going from GGCAGAGCUCGACACAACGUGGCAAAGUGGCUGUGGCUAGACUGCC [A11G G17A] to GGCAGAGCGCAACACAGCGUGGCAUAGUGGCUGUGGCUAGACUGCC [U9G A25U], the self-cleavage rises from 0.04 to 0.14.

Going from GGCGGAGCUCAACACAGCGGGGCAAAGUGGCUGUGGCUAGACUGCC [A4G U20G] to GGCAGCGCUCAACAGAGCGUGGCAAAGUGGCUGUGGCUAGACUGCC [A6C C15G], the self-cleavage falls from 0.23 to 0.04.

GGCAGAGCUAAACACAGCGUGGCAAAGUGGCUGUGGUUAGACUGCC [C10A C37U] and GGCAGAGCUAAACACAGCGUGGCAAAGUGGCUGUGGAUAGACUGCC [C10A C37A] are the same in self-cleavage: 0.01 for the first, 0.01 for the second.

Compared with GGCAGAGCUCAACACAGCUUGGCAAAGUGGCUGUGGCUAGAAUGCC [G19U C42A], GGCAGAGCUCAACACAGCGUGGCAAGGUUGCUGUGGCUAGACUGCC [A26G G29U] is higher in self-cleavage: 0.14 for the first, 1.23 for the second.

Compared with GGCAGAGCUCAAUACAGCGUGGCAAAGUGGCUGUGGCUAGAAUGCC [C13U C42A], GGCAGAGCUCAACAAAGCGUGGCAAAGUGGCUGUGGCAAGACUGCC [C15A U38A] is lower in self-cleavage: 0.09 for the first, 0.05 for the second.

Compared with GGCAGAGCUCAACACAGCGCGGCAAAGUCGCUGUGGCUAGACUGCC [U20C G29C], GGCAGAGCUCAACACAGCGUGGCAAAUUGGCUGUGGAUAGACUGCC [G27U C37A] is lower in self-cleavage: 0.31 for the first, 0.03 for the second.

First: GGCAGAGCUCAACACAGCGUGGCAAACUGCCUGUGGCUAGACUGCC [G27C G30C]
Second: GGCAGAGCUCAACACAGCGUGGCAAAGGGGAUGUGGCUAGACUGCC [U28G C31A]
The self-cleavage of the first is higher: 0.84 for the first, 0.22 for the second.

Going from GGCAAAGCUCAACACAGCGUGGCAAAGUGGCUGUGGCUAGACUACC [G5A G44A] to GGCAGAGCUCAACACAGGGUGGCAAAGUGGCUCUGGCUAGACUGCC [C18G G33C], the self-cleavage falls from 0.1 to 0.03.

First: GGCAGAGCUCAUCACAGCGUGGCAAAGUGGCUGUGGCUAGACUGCU [A12U C46U]
Second: GGCAGAGCUCAACACAGCGUGACAAAGUGGCUGUGGCUAGACUGCU [G22A C46U]
The self-cleavage of the first is lower: 0.27 for the first, 0.84 for the second.

Going from GGCAGAGCUCAACACAGCGUGGCAAAGUGGCUUUCGCUAGACUGCC [G33U G35C] to GGCAGAGCUCAACACAGCGUGGCAAAGUGGCUUUAGCUAGACUGCC [G33U G35A], the self-cleavage rises from 0.06 to 0.08.

Going from GGCAGAGCCCAACACAGAGUGGCAAAGUGGCUGUGGCUAGACUGCC [U9C C18A] to GGCAGAGCUCAACACAGCGUGGCAAAGCGGCUGUGGCUAGGCUGCC [U28C A41G], the self-cleavage rises from 0.03 to 0.43.

Going from GGCAGAGCUCAACACAGCGUGGCAAAUUGGCUGUGGCUAGACUGCG [G27U C46G] to GGCAGAGCUCAACACAGCGUGGCAAAGUGGCUUUGGCUAGACUGCA [G33U C46A], the self-cleavage falls from 0.76 to 0.07.

Compared with GGCAGAGCUCCAUACAGCGUGGCAAAGUGGCUGUGGCUAGACUGCC [A11C C13U], GGCAGAGCUCAACACAGCGUGGAAAAUUGGCUGUGGCUAGACUGCC [C23A G27U] is higher in self-cleavage: 0.03 for the first, 0.72 for the second.
